Experimental data as given in patent US20250276077A1 (IMMUNOME, published 2025).
Substitutions are numbered along the chain they refer to.

B1: AB-009812 (antibody, mouse IgG2a, V domains shown)
VH: QVQLQQWGAGLLKPSETLSLTCAVYGGSFSDYYWSWIRQPPGKGLEWIGEVNHSGSINYNNYNPSLKSRVTISVDPSKNQFSLKLTSVTAADTAVYYCAKPLRPHCTNGVCYSGDAFDIWGQGTMVTVAS
VL: SYVLTQPPSVSVAPGQTARITCGGNNIGSKNVHWYQQKPGQAPVLVVYDDSDRPSGIPEQFSGSNSGNTATLTISRVEAGDEADYYCQVWDSSSDHLVFGGGTKLTVL
notes: Made on a mouse IgG2a framework
B2: AB-009813 (antibody, mouse IgG2a, V domains shown)
VH: B1 VH with S54A
VL: B1 VL
notes: as for B1
B3: AB-009815 (antibody, mouse IgG2a, V domains shown)
VH: B1 VH with S54R, P76T
VL: B1 VL
notes: as for B1
B4: AB-009816 (antibody, mouse IgG2a, V domains shown)
VH: B1 VH with S54R, P76A
VL: B1 VL
notes: as for B1
B5: AB-010357 (antibody, mouse IgG2a, V domains shown)
VH: B1 VH with V51I, S54R, P76T, T86S
VL: B1 VL with L97V
B6: AB-010361 (antibody, mouse IgG2a, V domains shown)
VH: B1 VH with D31G, V51I, S54R, P76T, T86S
VL: B1 VL with L97V
B7: AB-010363 (antibody, V domains shown)
VH: B1 VH with D31G, V51I, S54R, P76T, T86S
VL: B1 VL with Q60R, L97V
B8: AB-008873 (mouse IgG2a format) (antibody, V domains shown)
VH: B1 VH with S54R
VL: SYVLTQPPSVSVAPGQTARITCGGNNIGSKNVHWYQQKPGQAPVLVVYDDSDRPSGIPEQFSGSNSGNTATLTISRVEAGDEADYYCQVWDSSSDHLVFGGGTKLTVLG
B9: AB-010361 (mouse IgG2a format) (antibody, V domains shown)
VH: B1 VH with D31G, V51I, S54R, P76T, T86S
VL: B1 VL with L97V
notes: tested in mIgG2a format
B10: AB-010363 (mouse IgG2a format) (antibody, V domains shown)
VH: B1 VH with D31G, V51I, S54R, P76T, T86S
VL: B1 VL with Q60R, L97V
notes: tested in mIgG2a format
B11: AB-009807 (antibody, mouse IgG2a, V domains shown)
VH: QVQLQQWGAGLLKPSETLSLTCAVYGGSFNDYYWSWIRQPPGKGLEWIGEVNHSGSTSYNPSLKSRVTISVDTSKNQFSLKLSSVTAADTAVYYCAKPFRPHCTNGVCYSGDAFDIWGQGTMVTVSS
VL: B1 VL with V44A

Each binder was assayed against T1, Human EphA2 (human, UniProt P29317 24-976) (assay: IHC/IF on frozen human tumor tissue: Her2+ BRC).
T1 construct: Endogenous EphA2 in fresh frozen human tumor tissue sections, not a recombinant protein; also called ephrin receptor A2; hEphA2

Row | Binder | IHC score
1 | B1 | 2
2 | B2 | 1
3 | B3 | 2
4 | B4 | 2

The binders below were run against T1, Human EphA2 (assay: IHC/IF on frozen human tumor tissue: NSCLC-Adeno).

Row | Binder | IHC score
5 | B1 | 2
6 | B2 | 2
7 | B3 | 2
8 | B4 | 2

What follows are binders tested against T2, Human EphA2 (ephrin receptor A2) on cells (human, UniProt P29317 25-976) (assay: cell-based or functional assay).

Row | Binder | ADCC EC50 (nM), parent, A549 [nM]
9 | B5 | 10.9
10 | B6 | 3.1
11 | B7 | 4.65

These binders were tested against T1, Human EphA2 (assay: IHC/IF on frozen human tumor tissue: ANC).

Row | Binder | IHC score
12 | B1 | 2
13 | B2 | 2
14 | B3 | 2
15 | B4 | 2

These binders were tested against T1, Human EphA2 (assay: IHC/IF on frozen human tumor tissue: OVA).

Row | Binder | IHC score
16 | B1 | 2
17 | B2 | 2
18 | B3 | 2
19 | B4 | 2

These binders were tested against T1, Human EphA2 (assay: IHC/IF on frozen human tumor tissue: PROC).

Row | Binder | IHC score
20 | B1 | 1
21 | B2 | 1
22 | B3 | 1
23 | B4 | 1

These binders were tested against T1, Human EphA2 (assay: IHC/IF on frozen human tumor tissue: RCC-clear cell).

Row | Binder | IHC score
24 | B1 | 1
25 | B2 | 1
26 | B3 | 1
27 | B4 | 1

The binders below were run against T1, Human EphA2 (assay: IHC/IF on frozen human tumor tissue: UCEC-clear cell).

Row | Binder | IHC score
28 | B1 | 1
29 | B2 | 2
30 | B3 | 2
31 | B4 | 2

The binders below were run against T1, Human EphA2 (assay: IHC/IF on frozen human tumor tissue: CRC).

Row | Binder | IHC score
32 | B1 | 1
33 | B2 | 1
34 | B3 | 1
35 | B4 | 1

Each binder was assayed against T1, Human EphA2 (assay: IHC/IF on frozen human tumor tissue: HNC).

Row | Binder | IHC score
36 | B1 | 2
37 | B2 | 2
38 | B3 | 2
39 | B4 | 2

Each binder was assayed against T3, C-terminally His-tagged hEphA2-FN2 (Thr437-Asn534+His tag) (human, UniProt P29317 437-534) (assay: SPR Biacore T200, 25 C; mIgG2a captured by anti-mouse Fc, hEphA2-FN2-His analyte; steady-state monovalent KD).
T3 construct: also called FN2 domain of hEphA2
Description: Binding of antibodies to the FN2 domain of hEphA2 was measured using the Biacore® T200 SPR system at 25° C. using HBS-EP+ buffer (0.01 M HEPES pH 7.4, 0.15 M NaCl, 3 mM EDTA, 0.005% v/v Surfactant P20). Antibodies in mIgG2a format were captured at levels between 475-715 RU via an anti-mouse Fc antibody immobilized to a CM5 chip. Binding was assessed using a titration of C-terminally His-tagged hEphA2-FN2 (Thr437-Asn534+His tag) associated for 30 s or 75 s at 30 μL/min. Data was double-reference subtracted using both a surface without captured antibody and from injections of HBS-EP+ buffer. The equilibrium response was measured at 4 seconds before the end of association with a window of 5 seconds and fit using the Biacore T200 Evaluation Software 3.1 with the Steady State Affinity Model.

Row | Binder | Kd [nM]
40 | B8 | 2260
41 | B9 | 1110
42 | B10 | 1310

These binders were tested against T1, Human EphA2 (assay: IHC/IF on frozen human tumor tissue: MELA).

Row | Binder | IHC score
43 | B1 | 2
44 | B2 | 2
45 | B3 | 2
46 | B4 | 2

What follows are binders tested against T1, Human EphA2 (assay: IHC/IF on frozen human tumor tissue: ESO).

Row | Binder | IHC score
47 | B1 | 2
48 | B2 | 2
49 | B3 | 2
50 | B4 | 2

The binders below were run against T1, Human EphA2 (assay: IHC/IF on frozen human tumor tissue: GAC).

Row | Binder | IHC score
51 | B1 | 2
52 | B2 | 2
53 | B3 | 2
54 | B4 | 2

Each binder was assayed against T1, Human EphA2 (assay: IHC/IF on frozen human tumor tissue: UCEC-papillary).

Row | Binder | IHC score
55 | B1 | 2
56 | B2 | 2
57 | B3 | 2
58 | B4 | 2

Molecular target: T2, Human EphA2 (ephrin receptor A2) on …
Experiment: cell-based or functional assay
Remark: another data set of the same source

Row | Binder | ADCC - EC50 (nM), Trial 1, A549 [nM] | ADCC - EC50 (nM), Trial 2, A549 [nM]
59 | B5 | 12.3 | 9.6
60 | B6 | 4 | 2.2
61 | B7 | 5.1 | 4.2

These binders were tested against T1, Human EphA2 (assay: IHC/IF on frozen human tumor tissue: RCC-papillary).

Row | Binder | IHC score
62 | B1 | 1
63 | B2 | 1
64 | B3 | 1
65 | B4 | 1

The binders below were run against T1, Human EphA2 (assay: IHC/IF on frozen human tumor tissue: URO).

Row | Binder | IHC score
66 | B1 | 1
67 | B2 | 1
68 | B3 | 1
69 | B4 | 1

Each binder was assayed against T1, Human EphA2 (assay: IHC/IF on frozen human tumor tissue: UCEC-endometrioid).

Row | Binder | IHC score
70 | B1 | 1
71 | B2 | 1
72 | B3 | 1
73 | B4 | 1

Molecular target: T2, Human EphA2 (ephrin receptor A2) on …
Experiment: cell-based or functional assay
Remark: another data set of the same source

Row | Binder | ADCC EC50 [nM] | ADCC Fold-improved (against AB-008873) [fold]
74 | B5 | 11.6 | 3
75 | B6 | 3.1 | 11.2
76 | B7 | 9.5 | 3.66

Molecular target: T2, Human EphA2 (ephrin receptor A2) on …
Experiment: cell-based or functional assay
Remark: another data set of the same source

Row | Binder | ADCC Delta activity (%), A549 [%] | ADCP Delta activity (%), A549 [%]
77 | B11 | 0.4 | 11.5

The binders below were run against T2, Human EphA2 (ephrin receptor A2) on … (assay: flow cytometry, A549 cells).
Description: Surface binding of the antibodies to in vitro grown cell lines was assessed by flow cytometry. Tumor cells were detached from their culture plate using Versene and counted. Cells were staining in BSA-containing buffer with primary antibody for 30 minutes at 4° C. with shaking. Following, cells were washed and stained with secondary PE-labeled antibody for 30 minutes at 4° C. with shaking. Before analysis on an Intellicyt iQue3 scanner, cells were counterstained with DAPI. MedFI values from live, single cells was expressed as fold over isotype control.

Row | Binder | Flow Delta activity (MedFI)
78 | B11 | 12700

The binders below were run against T1, Human EphA2 (assay: IHC/IF on frozen human tumor tissue: STS).

Row | Binder | IHC score
79 | B1 | 2
80 | B2 | 2
81 | B3 | 2
82 | B4 | 2

Each binder was assayed against T1, Human EphA2 (assay: IHC/IF on frozen human tumor tissue: PANC).

Row | Binder | IHC score
83 | B1 | 1
84 | B2 | 1
85 | B3 | 1
86 | B4 | 1

The binders below were run against T1, Human EphA2 (assay: IHC/IF on frozen human tumor tissue: TNBC).

Row | Binder | IHC score
87 | B1 | 1
88 | B2 | 1
89 | B3 | 1
90 | B4 | 1

The binders below were run against T1, Human EphA2 (assay: IHC/IF on frozen human tumor tissue: ER+ BRC).

Row | Binder | IHC score
91 | B1 | 1
92 | B2 | 1
93 | B3 | 1
94 | B4 | 1

Each binder was assayed against T1, Human EphA2 (assay: IHC/IF on frozen human tumor tissue: NSCLC-SQ).

Row | Binder | IHC score
95 | B1 | 1
96 | B2 | 1
97 | B3 | 1
98 | B4 | 1
